Test results as given in patent US20130115678.
Residue numbers refer to the chain shown, from its start.

What was measured:
Test in all cases: cleavage_in_vitro
[1] = test system: T1, BsmBI (Bacillus stearothermophilus); settings: NEB4, 55 C, Mg2+; FI NEB1-3: 1, 8, 120
T1 sequence: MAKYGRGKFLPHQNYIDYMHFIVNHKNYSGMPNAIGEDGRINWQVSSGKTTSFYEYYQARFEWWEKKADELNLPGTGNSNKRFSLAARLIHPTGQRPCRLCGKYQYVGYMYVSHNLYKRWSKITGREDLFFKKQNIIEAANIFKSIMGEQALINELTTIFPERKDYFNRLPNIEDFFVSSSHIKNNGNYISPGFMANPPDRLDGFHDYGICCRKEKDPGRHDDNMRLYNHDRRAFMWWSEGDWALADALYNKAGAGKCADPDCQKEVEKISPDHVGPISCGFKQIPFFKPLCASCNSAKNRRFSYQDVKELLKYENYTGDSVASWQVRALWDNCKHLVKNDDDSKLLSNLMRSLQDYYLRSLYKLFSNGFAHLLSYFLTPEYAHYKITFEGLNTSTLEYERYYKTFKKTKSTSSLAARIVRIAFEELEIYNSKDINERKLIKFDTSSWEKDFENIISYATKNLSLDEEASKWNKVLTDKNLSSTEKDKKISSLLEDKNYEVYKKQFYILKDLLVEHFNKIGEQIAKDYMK

[2] = test system: BstXI (Bacillus stearothermophilus); settings: NEB4, 55 C, Mg2+; FI NEB1-3: 2, 2, 2
[3] = target: T2, HindIII (Haemophilus influenzae Rd) (UniProt P43870); settings: NEB4, 37 C, Mg2+; FI NEB1-3: 32, 250, 4000
T2 sequence: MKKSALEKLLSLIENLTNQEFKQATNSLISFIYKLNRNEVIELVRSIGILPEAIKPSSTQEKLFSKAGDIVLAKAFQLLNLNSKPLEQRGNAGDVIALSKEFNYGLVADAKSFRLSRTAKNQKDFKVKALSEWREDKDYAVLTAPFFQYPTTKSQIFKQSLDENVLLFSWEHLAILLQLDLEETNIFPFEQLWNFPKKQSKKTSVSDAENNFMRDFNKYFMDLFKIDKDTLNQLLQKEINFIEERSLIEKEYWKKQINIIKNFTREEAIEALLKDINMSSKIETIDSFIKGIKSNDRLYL

[4] = target: T3, PstI-HF D91A (Providencia stuartii 164) (UniProt P00640); settings: NEB4, 37 C, Mg2+; FI NEB1-3: 1000, 4000, 4000
T3 sequence: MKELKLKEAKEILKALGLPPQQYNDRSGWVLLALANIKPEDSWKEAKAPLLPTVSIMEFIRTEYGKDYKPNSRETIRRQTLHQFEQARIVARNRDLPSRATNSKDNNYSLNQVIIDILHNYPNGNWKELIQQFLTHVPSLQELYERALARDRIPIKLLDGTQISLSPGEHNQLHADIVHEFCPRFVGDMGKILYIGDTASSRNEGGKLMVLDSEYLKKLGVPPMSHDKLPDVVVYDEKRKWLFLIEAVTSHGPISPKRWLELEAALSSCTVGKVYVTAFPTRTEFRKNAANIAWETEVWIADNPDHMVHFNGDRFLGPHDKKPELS

[5] = test system: T4, SbfI (Streptomyces species Bf-61); settings: NEB4, 37 C, Mg2+; FI NEB1-3: 32, 8, 8
T4 sequence: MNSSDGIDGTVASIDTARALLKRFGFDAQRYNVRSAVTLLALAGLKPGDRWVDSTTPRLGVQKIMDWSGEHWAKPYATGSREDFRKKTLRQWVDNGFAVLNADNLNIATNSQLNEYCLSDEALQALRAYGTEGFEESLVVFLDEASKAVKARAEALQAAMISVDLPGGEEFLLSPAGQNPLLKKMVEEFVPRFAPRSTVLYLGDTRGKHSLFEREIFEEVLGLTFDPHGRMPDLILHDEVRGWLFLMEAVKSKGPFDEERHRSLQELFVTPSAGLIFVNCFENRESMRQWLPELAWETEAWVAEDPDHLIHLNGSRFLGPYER

[6] = test system: T5, SbfI-HF K251A (Streptomyces species Bf-61); settings: NEB4, 37 C, Mg2+; FI NEB1-3: 1000, 120, 8
T5 sequence: T4 sequence with K251A

[7] = test system: T6, SspI-HF Y98F (Sphaerotilus species); settings: NEB4, 37 C, Mg2+; FI NEB1-3: >=4000, 120, >=32
T6 sequence: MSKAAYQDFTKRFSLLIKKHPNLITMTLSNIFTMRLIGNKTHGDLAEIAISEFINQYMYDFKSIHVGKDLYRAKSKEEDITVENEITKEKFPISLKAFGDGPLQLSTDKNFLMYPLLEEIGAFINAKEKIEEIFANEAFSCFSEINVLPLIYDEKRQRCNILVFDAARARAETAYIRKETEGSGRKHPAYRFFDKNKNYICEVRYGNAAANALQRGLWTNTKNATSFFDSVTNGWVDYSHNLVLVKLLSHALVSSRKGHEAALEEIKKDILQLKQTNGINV

## lambda phage DNA
[1]
  activity (fidelity index): 4
[2]
  activity (fidelity index): 4
[3]
  activity (fidelity index): 32
[4]
  activity (fidelity index): 4000
[5]
  activity (fidelity index): 8
[6]
  activity (fidelity index): 250
[7]
  activity (fidelity index): 500
